Test results as given in publication PMC10784507, “Disordered-to-ordered transitions in assembly factors allow the complex II catalytic subunit to switch binding partners” (Nature Communications, 2024).

Tests used:
[1] = biological target: T1, holo-SDHA with covalently attached FAD (human, UniProt P31040 43-664, covalently attached FAD (residue not stated)); assay: pull-down; preformed holo-SDHA-SDHAF2 (2 µM, His6 on SDHA) incubated with SDHAF4 or its variants, with or without 5 mM fumarate, 30 min 25 °C, then held on Ni-NTA agarose; SDS-PAGE with Coomassie, western blot for the truncated variants; conditions: both partners purified
T1 construct: also called SDHA with covalent FAD; His6-SDHA; source: E. coli BL21(DE3), purified; covalent FAD formed in vitro (apo-SDHA with SDHAF2, FAD and fumarate) or by co-expression with SDHAF2; not shown: His6, N-terminal, kept

His6-apo-SDHA = biological target: T2, His6-apo-SDHA (human, UniProt P31040 43-664); assay: pull-down; Ni-NTA pull-down, pairwise; His6-apo-SDHA (2.6 µM) with SDHAF2 (6.4 µM) or FLAG-SDHAF4 (8 µM), no FAD; 40 mM HEPES pH 7.5, 0.5 mM DTT, 30 min 25 °C; SDS-PAGE, Coomassie; conditions: both partners purified
T2 construct: the same molecule with 75 µM FAD added is the form with non-covalent FAD; also called His-SDHA; not shown: His6, N-terminal, kept

[2] = biological target: T3, holo-SDHA-SDHAF2 complex (preformed from purified proteins) (human, UniProt P31040 43-664; Q9NX18 37-166, covalently attached FAD (residue not stated)); assay: pull-down; preformed holo-SDHA-SDHAF2 (2 µM, His6 on SDHA) incubated with SDHAF4 or its variants, with or without 5 mM fumarate, 30 min 25 °C, then held on Ni-NTA agarose; SDS-PAGE with Coomassie, western blot for the truncated variants; conditions: both partners purified
T3 construct: human SDHAF2, mature, residues 37-166; also called holo-SDHA-AF2; SDHA-AF2 complex; source: E. coli BL21(DE3) proteins, purified; not shown: His6, N-terminal, kept; His6, N-terminal, cleaved

[3] = biological target: the molecule itself; assay: native gel or EMSA; purified His6-SDHAF4^30-108, dilution series from 5 mg/ml, on 10% native and 10% SDS gels
[4] = biological target: T1, holo-SDHA with covalently attached FAD; assay: crystal structure; SDHA-AF2-AF4: holo-SDHA-SDHAF2 with His6-SDHAF4, 5 h at 4 °C, SEC; crystals in 0.2 M ammonium citrate tribasic pH 8.0, 20% PEG 3,350, 1 mM DTT, 25 °C; conditions: both partners purified
[5] = biological target: T4, Human SDHA-AF2 complex (co-expressed, purified) (human, UniProt P31040 43-664; Q9NX18 37-166, covalently attached FAD (residue not stated)); assay: as above; conditions: both partners purified
T4 construct: human SDHAF2, mature, residues 37-166; also called holo-SDHA-SDHAF2 complex; holo-SDHA-AF2; not shown: His6, N-terminal, kept
T4 sequence (P31040 43-664, one chain of several): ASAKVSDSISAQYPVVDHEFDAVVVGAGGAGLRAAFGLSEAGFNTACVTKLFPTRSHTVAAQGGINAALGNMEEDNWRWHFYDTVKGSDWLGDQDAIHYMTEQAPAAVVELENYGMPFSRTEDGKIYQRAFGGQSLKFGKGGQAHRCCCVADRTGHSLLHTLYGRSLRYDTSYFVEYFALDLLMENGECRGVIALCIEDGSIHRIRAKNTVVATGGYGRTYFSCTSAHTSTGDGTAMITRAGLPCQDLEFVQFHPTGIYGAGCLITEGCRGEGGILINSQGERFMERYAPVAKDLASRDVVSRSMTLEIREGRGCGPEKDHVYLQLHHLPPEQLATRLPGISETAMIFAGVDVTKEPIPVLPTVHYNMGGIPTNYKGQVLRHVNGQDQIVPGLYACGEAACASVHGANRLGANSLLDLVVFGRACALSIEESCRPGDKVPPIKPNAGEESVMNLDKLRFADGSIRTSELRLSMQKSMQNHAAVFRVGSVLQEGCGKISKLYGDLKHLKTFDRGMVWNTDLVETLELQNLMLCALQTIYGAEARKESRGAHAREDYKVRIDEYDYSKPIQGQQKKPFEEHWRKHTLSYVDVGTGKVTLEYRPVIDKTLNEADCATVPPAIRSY

T3 sequence (P31040 43-664, one chain of several): as above
T1 sequence (P31040 43-664): as the sequence (P31040 43-664, one chain of several) above
T2 sequence (P31040 43-664): as the sequence (P31040 43-664, one chain of several) above

binding result [2] | percent of SDHAF2 displaced from the SDHA-AF2 complex [2] [%] | Binder | also measured
 |  | SDHAF2 (residues 37-166, His6 tag removed with TEV protease) (natural protein, human, UniProt Q9NX18 37-166, looked up, human SDHAF2, mature, residues 37-166; source: E. coli BL21(DE3), purified; His6 tag removed with TEV protease; not shown: His6, N-terminal, cleaved) GDSPTDSQKDMIEIPLPPWQERTDESIETKRARLLYESRKRGMLENCILLSLFAKEHLQHMTEKQLNLYDRLINEPSNDWDIYYWATEAKPAPEIFENEVMALLRDFAKNKNKEQRLRAPDLEYLFEKPR | binding result [1]: binds; binding result (His6-apo-SDHA): binds
binds |  | SDHAF4^D107A (natural protein, human, UniProt Q5VUM1 30-108, looked up, human SDHAF4, residues 30-108, made by modification of the pQT-SDHAF4 parent vector; The pQT vector adds a TEV-cleavable His tag; source: E. coli BL21(DE3), purified) LRKTSSSQGGKSELVKQSLKKPKLPEGRFDAPEDSHLEKEPLEKFPDDVNPVTKEKGGPRGPEPTRYGDWERKGRCIAF | 
 |  | His6-SDHAF4^30-108 (natural protein, human, UniProt Q5VUM1 30-108, looked up, human SDHAF4, residues 30-108, in the pQT vector (pQT-SDHAF4); also called His-SDHAF4; purified SDHAF4; source: E. coli BL21(DE3), purified (Ni-NTA, SEC); not shown: His6, N-terminal, kept) LRKTSSSQGGKSELVKQSLKKPKLPEGRFDAPEDSHLEKEPLEKFPDDVNPVTKEKGGPRGPEPTRYGDWERKGRCIDF | binding result [3]: binds; binding result [4]: binds; binding result [5]: binds
binds |  | SDHAF4^D107T (natural protein, human SDHAF4, residues 30-108, made by modification of the pQT-SDHAF4 parent vector; The pQT vector adds a TEV-cleavable His tag; source: E. coli BL21(DE3), purified) not shown | 
binds |  | SDHAF4^F108A (natural protein, human, UniProt Q5VUM1 30-108, looked up, human SDHAF4, residues 30-108, made by modification of the pQT-SDHAF4 parent vector; The pQT vector adds a TEV-cleavable His tag; source: E. coli BL21(DE3), purified) LRKTSSSQGGKSELVKQSLKKPKLPEGRFDAPEDSHLEKEPLEKFPDDVNPVTKEKGGPRGPEPTRYGDWERKGRCIDA | 
binds |  | SDHAF4^D107N (natural protein, human, UniProt Q5VUM1 30-108, looked up, human SDHAF4, residues 30-108, made by modification of the pQT-SDHAF4 parent vector; The pQT vector adds a TEV-cleavable His tag; source: E. coli BL21(DE3), purified) LRKTSSSQGGKSELVKQSLKKPKLPEGRFDAPEDSHLEKEPLEKFPDDVNPVTKEKGGPRGPEPTRYGDWERKGRCINF | 
binds |  | SDHAF4^ΔF108 (natural protein, human, UniProt Q5VUM1 30-108, looked up, human SDHAF4, residues 30-108 without the C-terminal F108, made by modification of the pQT-SDHAF4 parent vector; The pQT vector adds a TEV-cleavable His tag; source: E. coli BL21(DE3), purified) LRKTSSSQGGKSELVKQSLKKPKLPEGRFDAPEDSHLEKEPLEKFPDDVNPVTKEKGGPRGPEPTRYGDWERKGRCID | 
 | ~50 | SDHAF4^77-108 (domain or fragment, human SDHAF4, residues 77-108; also called truncated FLAG-SDHAF4 variant) not shown | 
 | ~50 | SDHAF4^67-108 (domain or fragment, human SDHAF4, residues 67-108; also called truncated FLAG-SDHAF4 variant) not shown | 
 | ~80 | FLAG-SDHAF4 (mature, residues 20-108) (natural protein, human, UniProt Q5VUM1 20-108, looked up, human SDHAF4, mature protein, residues 20-108, codon-optimised synthetic gene in pST50Trc3-FLAG; also called full-length SDHAF4; wild-type SDHAF4; source: E. coli BL21(DE3), purified (DEAE-Sepharose, filtration)) AARSPLLCHSLRKTSSSQGGKSELVKQSLKKPKLPEGRFDAPEDSHLEKEPLEKFPDDVNPVTKEKGGPRGPEPTRYGDWERKGRCIDF | 
 | ~50 | SDHAF4^56-108 (domain or fragment, human SDHAF4, residues 56-108; also called truncated FLAG-SDHAF4 variant) not shown | 
